Results reported in US20260258115A1 (MAPP BIOPHARMACEUTICAL, published 2026).
Residue numbers refer to the chain shown, from its start.

B1: ADI-14400 (antibody, V domains shown)
VH: QVQLVQSGGGVVQPGRSLRLSSAASGFTFSSYAMHWVRQAPGKGLEWVAVISHDGSKYYADSVKGRFTISRDNSKSTLNLQMNSLRPEDTAVYYCARGGDVRLYDDSNGYHYDTYYFDYWGQGTLVTVSS
VL: EIVLTQSPSSLSASVGDRVTITCRASQGIRNDLGWYQQKPGKAPKLLIYAASTLQSGVPSRFSGSGSGTDFTLTISSLQPEDFATYYCLQDYNYPLTFGGGTKVEIK
notes: also called Ab 66
B2: ADI-14576 (antibody, V domains shown)
VH: QVQLVQSGAEVKKPGASVKVSCKASGYTFTSYGISWVRQAPGQGLEWMGWISAYNGNTNYAQKLQGRVTMTTDTSTSTAYMELRSLRSDDTAVYYCARDPPVIAAGDFQHWGQGTLVTVSS
VL: DIVLTQSPLSLPVTLGQPASISCRSSQSLVHSDGNTYLNWFQQRPGQSPRRLIYKVSNRDSGVPDRFSGSGSGTDFTLKISRVEAEDVGVYYCMQGTHWPPDFGQGTRLEIK
B3: ADI-14411 (antibody, V domains shown)
VH: QVQLVQSGAEVKKPGASVKLSCKASGYTFTRFYIHWVRQAPGQGLEWMGIINPSGGGTSYAQNFQDRVTMTRDTSTSTVYMELSSLRSEDTAVYYCARNGYSTRSLQNNWFDPWGQGTLVTVSS
VL: ETTLTQSPSSLSASVGDRVTITCRASQSIDNYLNWYQQKPGKAPKLLIYEASSLQSGVPSRFSGSGSGTDFTLTISSLQPEDFATYYCQQTYSSLPYTFGQGTKVEIK
notes: also called Ab 77
B4: ADI-21006 (antibody, V domains shown)
VH: QVTLKESGPTLVKPTQTLTLTCTFSGFSLSISGVGVGWIRQPPGKALEWLAVMYWDDDKRYSPSLKTRLTITKDTSKNQVVLTMTNMAPVDTAIYYCAHLWFGEAAFDPWGQGTLVTVSS
VL: EIVLTQSPLSLPVTLRQTASISCRSGQSLLYSDGNTYLNWFQQRPGQSPRRLISIVSKRDSGVPDRFSGSGSGTDFTLKISRVEAEDVGVYYCMQGTHWPYTFGQGTKVEIK
B5: ADI-14401 (antibody, V domains shown)
VH: QVQLVQSGGGLVKPGGSLRLSCAASGFTFSSYSMHWVRQAPGKGLEWVSSISASSSYLNYADSVKGRFTISRDNAKKSLYLQLNTLRADDTAVYYCAREDHDSGTYYLNWFDPWGQGTLVTVSS
VL: QSVVTQPPSVSGAPGQRVTISCTGSSSNIGAGYDVHWYQQFPGTGPKLLIYGNSHRPSGVPDRFSGSKSGPSASLAITGLQAEDEADYYCQSYDSSLSGYVFGTGTKVTVL
notes: also called Ab 67
B6: ADI-14399 (antibody, V domains shown)
VH: EVQLLESGPGLVKPSQTLSLTCAVSGGSINSGRYSWSWIRQPPGKGLEWIGYIYYSGTTYYNPSLESRVTISRDTSKNQFSLNLSSVTAADTAVYYCARTNSADSYASGSHYIRPQYFDFWGQGTLVTVSS
VL: DIQLTQSPATLSLSPGERATLSCRASQSVSSYLAWYQQKPGQAPRLLIYGASNRATGIPARFSGSGSGTDFTLTISRLEPEDFAVYYCQQRSNWLTFGGGTKVEIK
notes: also called Ab 65
B7: ADI-14571 (antibody, V domains shown)
VH: QVQLVQSGAEVKKPGSSVKVSCKASGGTFSTYTITWVRQAPGQGLEWMGRIVPIFGVVNNAQKFLGRLTITADKSTSTAYMELSSLRSEDTAVYYCARIPCSGNCQDYYYGMDVWGQGTTVTVSS
VL: DIQLTQSPSFLSASVGDRVTITCRASQGISSYLVWYQQKPGKAPKLLIYAASTLQSGVPSRFSGSGSGTEFTLTISSLQPEDFATYYCQQLNNYPPTFGPGTKVDIK
B8: ADI-14419 (antibody, V domains shown)
VH: EVQLVESGGGVVQPGGSLRLSCAASGFSFSDYGMHWVRQAPGKGLEWVSFIRYDASYKFYADSVKGRFTISRDNAKNTLYLQINSLRAEDTAVYYCAKEIYGSGSYYYYYYAIDVWGQGTTVTVSS
VL: EIVLTQSPGTLSLSPGERATLSCRASQSVSSSHLAWYQQKPGQAPRLLIYGASSRATGIPDRFSGSGSGTDFTLTISRLEPEDFAVYYCQQYFRSAWAFGQGTKVDIK
notes: also called Ab 85
B9: ADI-21010 (antibody, V domains shown)
VH: EVQLVESGGGVVQPGRSLRLSCAASGFSFSTYGMHWVRQAPGKGLEWVGVIWYDETTKYYADSVKGRFSISRDNSKNMVYVQMNSLRADDTALYYCAREVWGGVFDIWGQGTTVTVSS
VL: DIQMTQSPATLSASVGDRVTITCRASQNIVTWLAWYQQKPGKAPNLLIYKASSLESGVPSRFSGSGSGTEFTLTISSLQPDDFATYYCQHYNSYSGAFGQGTKVDIK
B10: ADI-20977 (antibody, V domains shown)
VH: EVQLVESGGGLVQPGGSLRLSCAASGFTFTNYAMSWVRQAPGKGLEWVSGISGSGGSTYYADSVKGRFTISRDNSKNTLYLQMNSLRAEDTAVYYCAKDQGYAVVVADATRNLPPRRYGMDVWGQGTTVTVSS
VL: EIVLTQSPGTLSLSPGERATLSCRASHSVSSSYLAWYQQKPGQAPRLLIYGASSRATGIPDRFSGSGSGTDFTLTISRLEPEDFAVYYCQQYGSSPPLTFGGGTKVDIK
notes: also called Ab 230
B11: ADI-14572 (antibody, V domains shown)
VH: QVQLVQSGGGLVKPGGSLRLSCAASGFTFSNAWISWVRQAPGKGLEWVGRIKSATDGGTTDYAAPVKGRFTISRDDSKNTLYLQMDSLKTEDTAVYYCTTSYPYFDWLPFSVDYWGQGTLVTVSS
VL: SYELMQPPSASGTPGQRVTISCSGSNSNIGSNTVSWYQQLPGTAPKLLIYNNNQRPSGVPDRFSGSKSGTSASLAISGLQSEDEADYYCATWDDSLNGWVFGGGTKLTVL
B12: ADI-14409 (antibody, V domains shown)
VH: QVQLVQSGGEVKKPGASVKVSCKASGYTFTYYGISWVRQAPGQGLEWMGWISAYNGNTNYEQKFQGRVTMTTDTSTGTAYMELRSLTSDDTAVYYCARDRIVVVTAANYYGLDVWGQGTTVTVSS
VL: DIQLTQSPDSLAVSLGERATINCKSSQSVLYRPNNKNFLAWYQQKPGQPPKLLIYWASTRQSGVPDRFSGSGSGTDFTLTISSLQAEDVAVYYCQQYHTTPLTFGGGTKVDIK
notes: also called Ab 75
B13: ADI-14395 (antibody, V domains shown)
VH: EVQLVESGGGVVQPGRSLRLSCAASGFTFSSYAMHWVRQAPGKGLEWVAVISYDGSNKYYADSVKGRFTISRDNSKNTLYLQMNSLRAEDTAVYYCARDDTYYYDSSGYSAPFDYWGQGTLVTVSS
VL: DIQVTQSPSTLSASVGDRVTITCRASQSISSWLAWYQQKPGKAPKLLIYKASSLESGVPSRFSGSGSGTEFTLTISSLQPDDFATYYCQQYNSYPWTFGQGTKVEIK
notes: also called Ab 62
B14: ADI-14397 (antibody, V domains shown)
VH: B13 VH with S107N
VL: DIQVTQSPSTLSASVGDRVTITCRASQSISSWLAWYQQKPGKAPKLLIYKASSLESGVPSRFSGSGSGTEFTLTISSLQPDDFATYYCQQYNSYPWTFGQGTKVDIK
notes: also called Ab 64
B15: ADI-14396 (antibody, V domains shown)
VH: EVQLVESGGGVVQPGRSLRLSCAASGFTFSSYAMHWVRQAPGKGLEWVAVISYDGSNKYYADSVKGRFTISRDNSKNTLYLQMNSLRAEDTAVYYCARELRYFDWEYGGMDVWGQGTTVTVSS
VL: EIVLTQSPSSLSASVGDRVTITCQASQDISNYLNWYQQKPGKAPKLLIYDASNLETGVPSRFSGSGSGTDFTFTISSLQPEDIATYYCQQYDNLPMYTFGQGTKLEIK
notes: also called Ab 63
B16: ADI-21041 (antibody, V domains shown)
VH: EVQLVESGGVVVQPGGSLRLSCAASGFTFDDYTMHWVRQAPGKGLEWVSLISWVGDTTYYADSVKGRFTISRDNSKNSLYLQMNSLRTEDTALYYCAKGGYYDGSGYYYFDYWGQGTLVTVSS
VL: DIRLTQSPSSLSASVGDRVTITCRASQSISNYLNWYQQKPGKAPKLLMYAASSLQSGVPSRFSGSGSGTDFTLTISSLQPEDFATYSCQQSYSTPYTFGQGTKVEIK
B17: ADI-14407 (antibody, V domains shown)
VH: QVQLVQSGGGVVQPGRSLRLSCAASGFTFSSYGMHWVRQAPGKGLEWVAVIWFDGNNKEYADSVKGRFAISRDNSKNTLYLQMNSLRAEDTAVYYCARDLIPVTIFGVVNPYSYYGMDVWGQGTTVTVSS
VL: EIVMTQSPSSLSASVGDRVTITCRASQSISTYLNWYQQKPGTAPKLLIYAASSLESGVPSRLSGSGSGTEFILTISSLQREDFATYYCQQSYSTPPTFGQGTKVEIK
notes: also called Ab 73
B18: ADI-14394 (antibody, V domains shown)
VH: EVQLLESGGGLVKPGGSLRLSCAASGFTFSSYSMNWVRQAPGKGLEWVSSISSSSSYIYYADSVKGRFTISRDNAKNSLYLQMNSLRAEDTAVYYCARGSEYYFDYWGQGTLVTVSS
VL: QSVLTQPPSVSGAPGQRVTISCTGSSSNIGAGYDVHWYQQLPGTAPKLLIYGNSNRPSGVPDRFSGSKSGTSASLAITGLQAEDEADYYCQSYDSSLSVVFGGGTKVTVL
notes: also called Ab 61
B19: ADI-14410 (antibody, V domains shown)
VH: QVQLQQWGAGLLKPSETLSLTCAIYSGSFSGYYWSWIRQPPGKGLEWIGQINYSGSAYYTPSLKSRVTISVDTSKNQFSLKLSSVTAADTAVYYCARVRITMVQGAIVPCAIDVWGQGTTVTVSS
VL: SYELTQPPSASGTPGQRVTISCSGSSSNIESNFVYWYQQLPGTAPKLLIHRNDQRPSGVPDRFSGSKSGTSASLAISGLRSEDEADYSCAAWDDSLSGVVFGGGTKVTVL
notes: also called Ab 76
B20: ADI-14408 (antibody, V domains shown)
VH: QVQLVQSGPALVKTTQTLTLTCTFSGFSLTTSGMCVSWIRQPPGKALEWLARIDWDDDKYYSTSLKTRLTISKDTSKNQVVLTLTNVDPVDTATYYCARMQKYDSSGYYLHYFDSWGQGTLVTVSS
VL: DIRLTQSPSSLSASVGDRVTIACRASQSISSYLNWYQQKPGKSPKVLIYAASILQTGVPSRFSGSGSGTDFTLTISSLQPEDFATYYCQQSYSINQYTFGQGTKVEIK
notes: also called Ab 74
B21: ADI-14584 (antibody, V domains shown)
VH: QVQLVQSGAEVKKPGASVKVSCKASGFTFTNYGTSYGITWVRQAPGQGLEWMGWINTSNGNPNYAQKLQGRVTMTADTSTSTAYMELRSLISDDTAVYYCARGHRMVRGVVPTGYYGLDVWGQGTTVTVSS
VL: B16 VL with R3Q, N31S, M48I, Y49F, S53N, S87Y, S93I, Y96W
notes: also called Ab 113

These binders were tested against RSV prefusion F (preF), subtype A (respiratory syncytial virus, subtype A, UniProt P03420 26-513) (assay: BLI, IgG).

Q: For B1, which Kd is on record?
A: Its Kd is 0.29 nM.

Q: B2 was tested. Which Kd did it give?
A: Its Kd is 6.97 nM.

Q: For B3, which Kd is on record?
A: Its Kd is 6.12 nM.

Q: How did the Kd turn out when B4 was run?
A: Its Kd is 10.4 nM.

Q: With B5 as the binder, how does the Kd read?
A: The Kd was 1.19 nM.

Q: With B6 as the binder, how does the Kd read?
A: Its Kd is 0.189 nM.

Q: With B7 as the binder, how does the Kd read?
A: Its Kd is 2.91 nM.

Q: For B8, which Kd is on record?
A: Its Kd is 2.69 nM.

Q: B9 was tested. Which Kd did it give?
A: Its Kd is 3.58 nM.

Q: B10 was tested. Which Kd did it give?
A: Its Kd is 0.151 nM.

Q: Does B11 bind?
A: Result: no binding

Q: For B12, which Kd is on record?
A: Its Kd is 0.15 nM.

Q: Which Kd does the source give for B13 here?
A: Its Kd is 24.9 nM.

Q: Which Kd does the source give for B14 here?
A: Its Kd is 28.5 nM.

Q: Does B15 bind?
A: Result: no binding

Q: For B16, which Kd is on record?
A: The Kd was 7.3 nM.

Q: B17 was tested. Which Kd did it give?
A: The Kd was 6.28 nM.

Q: B18 was tested. Which Kd did it give?
A: The Kd was 11.5 nM.

Q: B19 was tested. Which Kd did it give?
A: The Kd was 3.77 nM.

Q: B20 was tested. Which Kd did it give?
A: Its Kd is 8.53 nM.

These binders were tested against T1, RSV postfusion F (postF), subtype A (respiratory syncytial virus, subtype A, UniProt P03420 26-513) (assay: BLI, IgG).
T1 construct: also called F ΔFP; Postfusion subtype A

Q: Does B1 bind?
A: Result: no binding

Q: Does B2 bind?
A: Result: no binding

Q: Does B3 bind?
A: Result: no binding

Q: Does B4 bind?
A: Result: no binding

Q: Does B5 bind?
A: Result: no binding

Q: Does B6 bind?
A: Result: no binding

Q: Does B7 bind?
A: Result: no binding

Q: Does B8 bind?
A: Result: no binding

Q: Does B9 bind?
A: Result: no binding

Q: Does B10 bind?
A: Result: no binding

Q: B11 was tested. Which Kd did it give?
A: The Kd was 17 nM.

Q: Does B12 bind?
A: Result: no binding

Q: Does B13 bind?
A: Result: no binding

Q: Does B14 bind?
A: Result: no binding

Q: Does B15 bind?
A: Result: no binding

Q: Does B21 bind?
A: Result: no binding

Q: Does B16 bind?
A: Result: no binding

Q: How did the Kd turn out when B17 was run?
A: The Kd was 0.378 nM.

Q: Does B18 bind?
A: Result: no binding

Q: Does B19 bind?
A: Result: no binding

Q: B20 was tested. Which Kd did it give?
A: Its Kd is 2.14 nM.

Each binder was assayed against RSV prefusion F (preF), subtype B (respiratory syncytial virus, subtype B) (assay: BLI, IgG).

Q: B1 was tested. Which Kd did it give?
A: The Kd was 0.451 nM.

Q: With B2 as the binder, how does the Kd read?
A: Its Kd is 19.3 nM.

Q: How did the Kd turn out when B3 was run?
A: The Kd was 3.92 nM.

Q: For B5, which Kd is on record?
A: Its Kd is 2.17 nM.

Q: With B6 as the binder, how does the Kd read?
A: The Kd was 0.365 nM.

Q: Which Kd does the source give for B12 here?
A: Its Kd is 0.289 nM.

Q: With B15 as the binder, how does the Kd read?
A: The Kd was 15.5 nM.

Q: Which Kd does the source give for B21 here?
A: Its Kd is 0.476 nM.

Q: For B17, which Kd is on record?
A: Its Kd is 11.4 nM.

Q: For B19, which Kd is on record?
A: Its Kd is 17.1 nM.

Q: How did the Kd turn out when B20 was run?
A: Its Kd is 12.8 nM.
